Laboratory results taken from patent US20240270814A1 (published 2024).
Where a chain is given by its changes, count along the chain named.

T1: p53 wild type (Y220) peptide on HLA-DRB1*04:01 (human)
T1 peptide: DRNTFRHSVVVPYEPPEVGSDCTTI

T2: p53 Y220C peptide on HLA-DRB1*04:01 (human)
T2 peptide: RNTFRHSVVVPCE

T3: p53 R248W peptide on HLA-A*68:01 (human)
T3 peptide: SSCMGGMNWR

B1: 4259-F6-TCR (TCR, V domains shown)
Valpha: QKEVEQNSGPLSVPEGAIASLNCTYSDRGSQSFFWYRQYSGKSPELIMFIYSNGDKEDGRFTAQLNKASQYVSLLIRDSQPSDSATYLCAWNSGGSNYKLTFGKGTLLTVNP
Vbeta: NAGVTQTPKFRVLKTGQSMTLLCAQDMNHEYMYWYRQDPGMGLRLIHYSVGEGTTAKGEVPDGYNVSRLKKQNFLLGLESAAPSQTSVYFCASSYSQAWGQPQHFGDGTRLSIL
B2: 4266-TCR3 (TCR, V domains shown)
Valpha: GQNIDQPTEMTATEGAIVQINCTYQTSGFNGLFWYQQHAGEAPTFLSYNVLDGLEEKGRFSSFLSRSKGYSYLLLKELQMKDSASYLCAFYYGGSQGNLIFGKGTKLSVKP
Vbeta: GAGVSQSPRYKVAKRGQDVALRCDPISGHVSLFWYQQALGQGPEFLTYFQNEAQLDKSGLPSDRFFAERPEGSVSTLKIQRTQQEDSAVYLCASSFGSGSTDTQYFGPGTRLTVL
B3: 4266-TCR2 (TCR, V domains shown)
Valpha: GQNIDQPTEMTATEGAIVQINCTYQTSGFNGLFWYQQHAGEAPTFLSYNVLDGLEEKGRFSSFLSRSKGYSYLLLKELQMKDSASYLCAVYTGGFKTIFGAGTRLFVKA
Vbeta: EAGVAQSPRYKIIEKRQSVAFWCNPISGHATLYWYQQILGQGPKLLIQFQNNGVVDDSQLPKDRFSAERLKGVDSTLKIQPAKLEDSAVYLCASNLGGGSTDTQYFGPGTRLTVL
B4: 4266-TCR4 (TCR, V domains shown)
Valpha: B2 Valpha with F90V, Y92P
Vbeta: B3 Vbeta with N95S, G98T

Experiments:
Experiment in all cases: activation reporter or marker
[1] = target: T1, p53 wild type (Y220) peptide on …
[2] = target: T2, p53 Y220C peptide on HLA-DRB1*04:01
[3] = target: T3, p53 R248W peptide on HLA-A*68:01

Row | Binder | binding result [1] | binding result [2] | binding result [3]
1 | B1 | no recognition | recognises | 
2 | B2 |  |  | recognises
3 | B3 |  |  | recognises
4 | B4 |  |  | recognises
